Experiments:
[1] = target: T1, CD99 peptide containing the 10A1 epitope, Ac-GENDDPRPPNPPKPM-amide (human); test: crystal structure
T1 chain: Ac-GENDDPRPPNPPKPM-NH2

[2] = target: T2, CD99, endogenously expressed on T-ALL cells (Jurkat, KOPT-K1) (human (endogenous in Jurkat and KOPT-K1)) (UniProt P14209)
T2 sequence (chain, O-linked glycosylation): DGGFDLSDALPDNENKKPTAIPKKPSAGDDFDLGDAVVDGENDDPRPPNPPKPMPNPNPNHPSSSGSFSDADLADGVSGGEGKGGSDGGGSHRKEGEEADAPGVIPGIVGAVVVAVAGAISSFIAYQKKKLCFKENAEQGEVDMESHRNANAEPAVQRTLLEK

B1: 10A1 Fab (Fab, V domains shown)
VH: QVQLQQSGPVLVKPSQTLSLTCAISGDSISSDTTAWSWIRRSPSRGLEWLGWTYYRSKWFNYYAVSVKGRVTINPDTSKNQFSLQLSSVTPEDTAVYYCARGNGNGGMDVWGQGTTVTVSS
VL: SYVLTQPASASVSPGQTARITCSGDALPKQYAYWYQQKPGQAPVLVIFKDSERPSGVPERFSGSSSGTTVTLTISGAQAEDEADYYCQSVDNSGFYQVFGGGTQLTVL
Q: Does B1 bind [1]?
A: Result: binds

Q: What about the IC50 (nM Fv) of cytotoxicity, Annexin V staining of KOPT-K1 cells after 18 h [2] of the same binder?
A: Its IC50 (nM Fv) of cytotoxicity, Annexin V staining of KOPT-K1 cells after 18 h is over 2000 nM Fv.

Reference: publication PMC8897262 (Journal of molecular biology, 2021)
